What was measured:
[1] = target: T1, CrkII^FL dimer (Homo sapiens, UniProt P46108); assay: SPR, CrkII FL dimer binding to immobilised PEAK proteins; details: interactor as analyte over biotinylated PEAK protein (biotin CAPture); Biacore 8K+, HBS-TP with 500 mM NaCl, 20 °C; steady-state fit; mean ± SD (N = 2)
T1 construct: full length CrkII (CrkII^FL; UniProt P46108-1, residues 1–330); 8-His tag with TEV protease cleavage site (N); made in house; host or cells: E. coli C41 (DE3)
Protocol: (§1) SPR binding studies of PEAK PRM peptides to CrkII^NSH3 were performed using a Biacore S200 Instrument (Cytiva). Purified CrkII^NSH3 was diluted to 5 µg ml^−1 in 10 mM sodium acetate pH 4.0 and amine coupled at 25 °C to a Series S CM5 sensor chip, in HBS-N running buffer (20 mM HEPES pH 7.4, 150 mM NaCl) to a final immobilization level of 1100–1400 response units (RU), followed by surface deactivation using 1 M ethanolamine. A blank activation/deactivation was used for the reference surface. Peptide binding studies were performed at 20 °C in HBS-TP running buffer (20 mM HEPES pH 7.4, 150 mM NaCl, 1 mM TCEP, 0.005% (v/v) Tween-P20). […] Peptide stocks were further diluted to in running buffer to 10 or 20 µM and prepared as a 11-point concentration series (2-fold serial dilution, […] for PEAK PRM peptides, or 20 µM–20 nM for PEAK tandem motif peptides). Samples were injected in a multi-cycle run (flow rate 30 µl min^−1, contact time of 60 s, dissociation 120 s) without regeneration. Sensorgrams were double referenced, and steady-state binding data fitted using a 1:1 binding model using Biacore S200 Evaluation Software (Cytiva, v. 1.1).
(§2) SPR binding studies of PEAK proteins to full length CrkII/Grb2 and sub-domains were performed using a Biacore 8K+ Instrument (Cytiva) and analyzed using Biacore Insight Evaluation Software (v. 3.0.12.15655). […] Binding studies and steady-state data analysis were performed as described for CrkII^NSH3 with the inclusion of an additional surface regeneration step (60 s injection of 1 M NaCl) between cycles.

[2] = target: T2, CrkII^FL monomer (Homo sapiens, UniProt P46108); assay: SPR, CrkII FL monomer binding to immobilised PEAK proteins; details: interactor as analyte over biotinylated PEAK protein (biotin CAPture); Biacore 8K+, HBS-TP with 500 mM NaCl, 20 °C; steady-state fit; mean ± SD (N = 2)
T2 construct: full length CrkII (CrkII^FL; UniProt P46108-1, residues 1–330); 8-His tag with TEV protease cleavage site (N); made in house; host or cells: E. coli C41 (DE3)
T2 sequence (P46108 whole entry, the tested form may be a part): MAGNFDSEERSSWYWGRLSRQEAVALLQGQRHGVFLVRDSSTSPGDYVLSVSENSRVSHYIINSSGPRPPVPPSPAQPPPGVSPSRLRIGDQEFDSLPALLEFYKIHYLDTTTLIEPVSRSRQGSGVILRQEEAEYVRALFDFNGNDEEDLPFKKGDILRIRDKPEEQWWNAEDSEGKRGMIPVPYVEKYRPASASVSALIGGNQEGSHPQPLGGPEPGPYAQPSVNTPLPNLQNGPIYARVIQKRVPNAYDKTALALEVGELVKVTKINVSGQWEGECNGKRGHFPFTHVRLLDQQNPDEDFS
Protocol: as §1, §2

[3] = target: 14-3-3ɣ; assay: SPR, 14-3-3ɣ binding to immobilised PEAK proteins; design: species or system human; details: 14-3-3ɣ analyte 0.46–1000 nM, multi-cycle, over immobilised biotinylated PEAK protein; Biacore 8K+, 20 °C; KD only an estimate (bivalent analyte model); N = 3
Protocol: PEAK proteins and adapters proteins (full length or individual domains) were biotinylated using EZ-Link™ NHS-PEG4-Biotin (Thermo Fisher) at a 1:1 molar ratio (100 µM) for 1 h at room temperature, then excess biotin was removed by buffer exchange using a Zeba™ Spin Desalting Column (Thermo Fisher) into HBS-T buffer (20 mM HEPES pH 7.4, 150 mM NaCl, 1 mM TCEP).
SPR binding studies of PEAK proteins to full length CrkII/Grb2 and sub-domains were performed using a Biacore 8K+ Instrument (Cytiva) and analyzed using Biacore Insight Evaluation Software (v. 3.0.12.15655). […] Biotinylated PEAK proteins (with or without Src phosphorylation; 500 nM in HBS-TP) were immobilized using a biotin CAPture kit (Cytiva) in HBS-TP running buffer at 20 °C. Binding studies and steady-state data analysis were performed as described for CrkII^NSH3 with the inclusion of an additional surface regeneration step (60 s injection of 1 M NaCl) between cycles. For Grb2^FL, Grb2^SH2, CrkII^SH2, CrkII^FL monomer and CrkII^FL dimer, to reduce nonspecific interactions the HBS-TP running buffer was supplemented with additional NaCl to a final concentration of 500 mM.
Binding studies for 14-3-3ɣ were undertaken in the same way in multi cycle mode (8 point, 3-fold serial dilution series, 0.46–1000 nM, 60 s contact time, 300 s dissociation).

[4] = target: T3, CrkII^SH2 (Homo sapiens, UniProt P46108); assay: SPR, CrkII SH2 binding to immobilised PEAK proteins; details: interactor as analyte over biotinylated PEAK protein (biotin CAPture); Biacore 8K+, HBS-TP with 500 mM NaCl, 20 °C; steady-state fit; mean ± S.E.M. (N = 3)
T3 construct: CrkII^SH2; UniProt P46108-1, residues 6–120; 8-His tag with TEV protease cleavage site (N); made in house; host or cells: E. coli C41 (DE3)
T3 sequence (P46108 6-120): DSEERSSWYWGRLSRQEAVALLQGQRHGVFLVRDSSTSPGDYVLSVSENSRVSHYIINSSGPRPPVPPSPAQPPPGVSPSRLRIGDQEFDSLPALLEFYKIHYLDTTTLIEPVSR
Protocol: as §1
(§3) SPR binding studies of PEAK proteins to full length CrkII/Grb2 and sub-domains were performed using a Biacore 8K+ Instrument (Cytiva) and analyzed using Biacore Insight Evaluation Software (v. 3.0.12.15655). […]

[5] = target: T4, CrkII^NSH3 (Homo sapiens, UniProt P46108); assay: SPR, CrkII NSH3 binding to immobilised PEAK proteins; details: read-out: CrkII NSH3 SPR KD; interactor as analyte over biotinylated PEAK protein captured with biotin CAPture kit; Biacore 8K+, HBS-TP, 20 °C; steady-state fit; mean ± SD (N = 2); read-out: CrkII-SH2 SPR KD
T4 construct: CrkII^NSH3; UniProt P46108-1, residues 134–191; 8-His tag with TEV protease cleavage site (N); made in house; host or cells: E. coli C41 (DE3)
T4 sequence (P46108 134-191): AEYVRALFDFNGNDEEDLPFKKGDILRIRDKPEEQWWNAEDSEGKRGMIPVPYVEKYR
Protocol: as §1, §2

[6] = target: T5, Grb2^FL (Homo sapiens, UniProt P62993); assay: SPR, Grb2 FL binding to immobilised PEAK proteins; details: interactor as analyte over biotinylated PEAK protein (biotin CAPture); Biacore 8K+, HBS-TP with 500 mM NaCl, 20 °C; steady-state fit; mean ± SD (N = 2) or S.E.M. (N = 3)
T5 construct: Grb2^FL; UniProt P62993-1, residues 1–217; 8-His tag with TEV protease cleavage site (N); made in house; host or cells: E. coli C41 (DE3)
Protocol: as §1, §3

[7] = target: Grb2^SH2 (Homo sapiens, UniProt P62993); assay: SPR, Grb2 SH2 binding to immobilised PEAK proteins; details: interactor as analyte over biotinylated PEAK protein (biotin CAPture); Biacore 8K+, HBS-TP with 500 mM NaCl, 20 °C; steady-state fit; mean ± S.E.M. (N = 3)
Chain of Grb2^SH2 (P62993 60-152 limits assumed): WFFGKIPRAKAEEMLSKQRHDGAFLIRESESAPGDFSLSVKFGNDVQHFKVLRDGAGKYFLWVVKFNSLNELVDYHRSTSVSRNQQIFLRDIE
Protocol: as §1, §3

T1 sequence (P46108 whole entry, the tested form may be a part): as the sequence (P46108 whole entry, the tested form may be a part) above

Kd [1] [µM]	Kd [2] [µM]	SPR KD, 14-3-3ɣ [3]	SPR KD, CrkII-SH2 [4]	Kd [5] [µM]	Kd [6] [µM]	SPR KD, Grb2 SH2 [7]	Molecule
4.22	13.7	No binding	No binding	4.79			PEAK2-IDR1: recombinant human PEAK2 residues 802–1406, insect cell expressed (protein, phosphorylated at the tandem site 14-3-3 motif (RAASSP) by LC MS/MS; left off: His tag, N-terminal, state not stated, recombinant human PEAK2 residues 802–1406, insect cell expressed) EDVSPSGPQQPPPLPQKKIVSRAASSPDGFFWTQGSPKPGTASPKLNLSHSETNVHDESHFSYSLSPGNRHHPVFSSSDPLEKAFKGSGHWLPAAGLAGNRGGCGSPGLQCKGAPSASSSQLSVSSQASTGSTQLQLHGLLSNISSKEGTYAKLGGLYTQSLARLVAKCEDLFMGGQKKELHFNENNWSLFKLTCNKPCCDSGDAIYYCATCSEDPGSTYAVKICKAPEPKTVSYCSPSVPVHFNIQQDCGHFVASVPSSMLSSPDAPKDPVPALPTHPPAQEQDCVVVITREVPHQTASDFVRDSAASHQAEPEAYERRVCFLLLQLCNGLEHLKEHGIIHRDLCLENLLLVHCTLQAGPGPAPAPAPAPAPAAAAPPCSSAAPPAGGTLSPAAGPASPEGPREKQLPRLIISNFLKAKQKPGGTPNLQQKKSQARLAPEIVSASQYRKFDEFQTGILIYELLHQPNPFEVRAQLRERDYRQEDLPPLPALSLYSPGLQQLAHLLLEADPIKRIRIGEAKRVLQCLLWGPRRELVQQPGTSEEALCGTLHNWIDMKRALMMMKFAEKAVDRRRGVELEDWLCCQYLASAEPGALLQSLKLLQLL
1.38	2.12	No binding		5.2			PEAK2-IDR1 (+ Src phosphorylation): PEAK2 residues 802–1406 phosphorylated with recombinant Src kinase (protein, phosphorylated with Src kinase, sites not stated; phosphorylation of the tandem site 14-3-3 motif (RAASSP) found by proteomic analysis; biotin (EZ-Link NHS-PEG4-Biotin, 1:1 molar ratio); left off: His, PEAK2 residues 802–1406 phosphorylated with recombinant Src kinase) EDVSPSGPQQPPPLPQKKIVSRAASSPDGFFWTQGSPKPGTASPKLNLSHSETNVHDESHFSYSLSPGNRHHPVFSSSDPLEKAFKGSGHWLPAAGLAGNRGGCGSPGLQCKGAPSASSSQLSVSSQASTGSTQLQLHGLLSNISSKEGTYAKLGGLYTQSLARLVAKCEDLFMGGQKKELHFNENNWSLFKLTCNKPCCDSGDAIYYCATCSEDPGSTYAVKICKAPEPKTVSYCSPSVPVHFNIQQDCGHFVASVPSSMLSSPDAPKDPVPALPTHPPAQEQDCVVVITREVPHQTASDFVRDSAASHQAEPEAYERRVCFLLLQLCNGLEHLKEHGIIHRDLCLENLLLVHCTLQAGPGPAPAPAPAPAPAAAAPPCSSAAPPAGGTLSPAAGPASPEGPREKQLPRLIISNFLKAKQKPGGTPNLQQKKSQARLAPEIVSASQYRKFDEFQTGILIYELLHQPNPFEVRAQLRERDYRQEDLPPLPALSLYSPGLQQLAHLLLEADPIKRIRIGEAKRVLQCLLWGPRRELVQQPGTSEEALCGTLHNWIDMKRALMMMKFAEKAVDRRRGVELEDWLCCQYLASAEPGALLQSLKLLQLL
2.03	9.2	No binding	No binding	3.7	> 50	No binding	PEAK1-IDR1: recombinant human PEAK1 residues 1082–1746, insect cell expressed (protein, left off: His tag, N-terminal, state not stated, recombinant human PEAK1 residues 1082–1746, insect cell expressed) LPELEREDGKEDISDPMDPNPCSATYSNLGQSRAAMIPPKQPRQPKGAVDDAIAFGGKTDQEAPNASQPTPPPLPKKMIIRANTEPISKDLQKSMESSLCVMANPTYDIDPNWDASSAGSSISYELKGLDIESYDSLERPLRKERPVPSAANSISSLTTLSIKDRFSNSMESLSSRRGPSCRQGRGIQKPQRQALYRGLENREEVVGKIRSLHTDALKKLAVKCEDLFMAGQKDQLRFGVDSWSDFRLTSDKPCCEAGDAVYYTASYAKDPLNNYAVKICKSKAKESQQYYHSLAVRQSLAVHFNIQQDCGHFLAEVPNRLLPWEDPDDPEKDEDDMEETEEDAKGETDGKNPKPCSEAASSQKENQGVMSKKQRSHVVVITREVPCLTVADFVRDSLAQHGKSPDLYERQVCLLLLQLCSGLEHLKPYHVTHCDLRLENLLLVHYQPGGTAQGFGPAEPSPTSSYPTRLIVSNFSQAKQKSHLVDPEILRDQSRLAPEIITATQYKKCDEFQTGILIYEMLHLPNPFDENPELKEREYTRADLPRIPFRSPYSRGLQQLASCLLNPNPSERILISDAKGILQCLLWGPREDLFQTFTACPSLVQRNTLLQNWLDIKRTLLMIKFAEKSLDREGGISLEDWLCAQYLAFATTDSLSCIVKILQHR
1.49	1.5	No binding		4.11			PEAK1-IDR1 (+ Src phosphorylation): PEAK1 residues 1082–1746 phosphorylated with recombinant Src kinase (protein, phosphotyrosine at Y1107 (by Src in vitro, shown by MS/MS); other Src sites not stated; biotin (EZ-Link NHS-PEG4-Biotin, 1:1 molar ratio); left off: His-tag, N-terminal, state not stated, PEAK1 residues 1082–1746 phosphorylated with recombinant Src kinase) LPELEREDGKEDISDPMDPNPCSATYSNLGQSRAAMIPPKQPRQPKGAVDDAIAFGGKTDQEAPNASQPTPPPLPKKMIIRANTEPISKDLQKSMESSLCVMANPTYDIDPNWDASSAGSSISYELKGLDIESYDSLERPLRKERPVPSAANSISSLTTLSIKDRFSNSMESLSSRRGPSCRQGRGIQKPQRQALYRGLENREEVVGKIRSLHTDALKKLAVKCEDLFMAGQKDQLRFGVDSWSDFRLTSDKPCCEAGDAVYYTASYAKDPLNNYAVKICKSKAKESQQYYHSLAVRQSLAVHFNIQQDCGHFLAEVPNRLLPWEDPDDPEKDEDDMEETEEDAKGETDGKNPKPCSEAASSQKENQGVMSKKQRSHVVVITREVPCLTVADFVRDSLAQHGKSPDLYERQVCLLLLQLCSGLEHLKPYHVTHCDLRLENLLLVHYQPGGTAQGFGPAEPSPTSSYPTRLIVSNFSQAKQKSHLVDPEILRDQSRLAPEIITATQYKKCDEFQTGILIYEMLHLPNPFDENPELKEREYTRADLPRIPFRSPYSRGLQQLASCLLNPNPSERILISDAKGILQCLLWGPREDLFQTFTACPSLVQRNTLLQNWLDIKRTLLMIKFAEKSLDREGGISLEDWLCAQYLAFATTDSLSCIVKILQHR
